{"source": "paper PMC12846365", "key": {"wtA32": {"molecular_target": "wtA32", "sequence (heavy, as listed by the source, chain 1 of 2)": "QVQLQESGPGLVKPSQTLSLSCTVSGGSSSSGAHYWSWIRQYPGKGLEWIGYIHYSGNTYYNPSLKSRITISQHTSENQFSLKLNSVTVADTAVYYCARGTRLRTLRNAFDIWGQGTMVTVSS", "sequence (light, as listed by the source, chain 2 of 2)": "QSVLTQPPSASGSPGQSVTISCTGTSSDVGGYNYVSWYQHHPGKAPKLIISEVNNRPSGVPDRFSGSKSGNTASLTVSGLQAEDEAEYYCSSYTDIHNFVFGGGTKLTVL", "test": "not stated; KD of wtA32 in Table 1, no footnote and no method told"}, "2mutVRC01": {"molecular_target": "2mutVRC01", "sequence (light, as listed by the source, chain 2 of 2, other chains not shown)": "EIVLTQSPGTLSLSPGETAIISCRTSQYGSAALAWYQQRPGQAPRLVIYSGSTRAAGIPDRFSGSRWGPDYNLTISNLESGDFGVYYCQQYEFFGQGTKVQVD", "test": "SPR; OpenSPR-XT; C-terminally Strep-tagged antibody immobilised on Strep-Tactin XT over biotin sensor/streptavidin/biotinylated Strep-Tag peptide; analyte monovalent gpCore or ICs; 1:1 fit model; apparent kinetic values"}, "3mutA32": {"molecular_target": "3mutA32", "sequence (heavy, as listed by the source, chain 1 of 2)": "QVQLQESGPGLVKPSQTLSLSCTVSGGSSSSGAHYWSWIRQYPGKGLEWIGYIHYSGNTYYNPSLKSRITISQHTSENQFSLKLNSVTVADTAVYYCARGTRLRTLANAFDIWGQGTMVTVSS", "sequence (light, as listed by the source, chain 2 of 2)": "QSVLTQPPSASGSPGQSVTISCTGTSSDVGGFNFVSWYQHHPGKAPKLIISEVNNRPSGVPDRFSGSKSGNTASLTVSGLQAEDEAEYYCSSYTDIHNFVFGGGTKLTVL", "test": "SPR; OpenSPR-XT; C-terminally Strep-tagged antibody immobilised on Strep-Tactin XT over biotin sensor/streptavidin/biotinylated Strep-Tag peptide; analyte monovalent gpCore or ICs; 1:1 fit model; apparent kinetic values"}, "7mutVRC01": {"molecular_target": "7mutVRC01", "sequence (heavy, as listed by the source, chain 1 of 2)": "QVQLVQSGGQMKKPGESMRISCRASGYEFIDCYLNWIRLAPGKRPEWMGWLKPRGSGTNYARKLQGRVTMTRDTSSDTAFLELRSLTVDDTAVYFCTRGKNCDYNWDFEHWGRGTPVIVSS", "sequence (light, as listed by the source, chain 2 of 2)": "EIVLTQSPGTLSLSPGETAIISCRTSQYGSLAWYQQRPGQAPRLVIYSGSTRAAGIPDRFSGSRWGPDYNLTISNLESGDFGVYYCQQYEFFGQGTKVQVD", "test": "SPR; OpenSPR-XT; C-terminally Strep-tagged antibody immobilised on Strep-Tactin XT over biotin sensor/streptavidin/biotinylated Strep-Tag peptide; analyte monovalent gpCore or ICs; 1:1 fit model; apparent kinetic values"}, "[1]": {"molecular_target": "3 plasmid ICs (as tested with N6)", "test": "native gel or EMSA"}, "[2]": {"molecular_target": "48d.cl IC, fusion version (gpCore + 48d heavy chain fusion, Fab-Fab-crosslinked K126C) (HIV-1 strain BG505)", "test": "native gel or EMSA"}, "[3]": {"molecular_target": "GTi divalent immunogen, Fab-Fab-crosslinked version (HIV-1 strain BG505)", "test": "native gel or EMSA"}, "[4]": {"molecular_target": "GTii divalent immunogen, Fab-Fab-crosslinked version (HIV-1 strain BG505)", "test": "native gel or EMSA"}, "[5]": {"molecular_target": "GTiii divalent immunogen, Fab-Fab-crosslinked version (HIV-1 strain BG505)", "test": "native gel or EMSA"}}, "note": "pKd: −log10 of the molar value."}
{"substance": "gpCore (core gp120 of strain BG505), monovalent (domain or fragment)", "values": [{"measurement": "pKd", "setting": "wtA32", "result": 9.40}, {"measurement": "pKd", "setting": "2mutVRC01", "result": 6.70}, {"measurement": "pKd", "setting": "3mutA32", "result": 6.70}, {"measurement": "pKd", "setting": "7mutVRC01", "result": 5.15}]}
{"substance": "N6 (antibody)", "values": [{"measurement": "stoichiometry N", "setting": "[1]", "result": 1}, {"measurement": "stoichiometry N", "setting": "[2]", "result": 1}]}
{"substance": "monomeric VRC01 IgM unmutated common ancestor (UCA) (antibody)", "values": [{"measurement": "pKd", "setting": "[3]", "result": "6.00 to 6.10"}, {"measurement": "pKd", "setting": "[4]", "result": 7.22}, {"measurement": "pKd", "setting": "[5]", "result": 7.60}]}
